Laboratory results from patent US20030204066A1.

Target: human lymphotoxin (TNFβ) (human) (UniProt P01374)
Assay: cell-based or functional assay

Chain of human lymphotoxin (TNFβ) (human) (P01374 35-205 limits assumed): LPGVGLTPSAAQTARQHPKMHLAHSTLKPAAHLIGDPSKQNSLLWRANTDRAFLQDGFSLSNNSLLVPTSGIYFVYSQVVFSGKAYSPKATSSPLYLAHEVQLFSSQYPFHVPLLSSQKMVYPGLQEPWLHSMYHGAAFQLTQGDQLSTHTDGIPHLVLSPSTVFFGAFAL

p55-sf2 (p55 TNF receptor / IgG1 heavy chain single fusion with truncated light chain JCK) (from UniProt P19438) (Fc fusion)
amount needed for the same inhibition of TNFβ cytotoxicity, against p75P-sf2 (fold (against p75P-sf2)): 3
